Data reported in patent US20160319321.
Values joined by “and” are separate entries in the source; they are usually repeats but may differ in a detail not shown here. Equal entries are not always repeated.

How the values were obtained:
[1] = target: T1, Lys(Dnp)-SGGDRHAEGT-Lys(Abz)amide
T1 chain: KSGGDRHAEGTK

[2] = target: T2, Lys(Dnp)-DHGDR-HAEGT-Lys(Abz)amide
T2 chain: KDHGDRHAEGTK

[3] = target: T3, DVKPGQELYDDDDK-[Arg34]GLP-1(9-37)
T3 chain: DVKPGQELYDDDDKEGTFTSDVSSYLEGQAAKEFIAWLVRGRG

[4] = target: T4, Lys(Dnp)-DEGDR-HAEGT-Lys(Abz)amide
T4 chain: KDEGDRHAEGTK

[5] = target: T5, Lys(Dnp)-EDEGDR-HAEGT-Lys(Abz)amide
T5 chain: KEDEGDRHAEGTK

[6] = target: T6, Lys(Dnp)-DWGDR-EGTFT-Lys(Abz)amide
T6 chain: KDWGDREGTFTK

[7] = target: T7, Lys(Dnp)-DYGDR-EGTFT-Lys(Abz)amide
T7 chain: KDYGDREGTFTK

[8] = target: T8, Lys(Dnp)-DDGDR-HGTFT-Lys(Abz)amide
T8 chain: KDDGDRHGTFTK

[9] = target: T9, Lys(Dnp)-DSGDR-HGEGT-Lys(Abz)amide
T9 chain: KDSGDRHGEGTK

[10] = target: T10, Lys(Dnp)-DTGDR-HAEGT-Lys(Abz)amide
T10 chain: KDTGDRHAEGTK

[11] = target: T11, Lys(Dnp)-DLGDR-QGTFT-Lys(Abz)amide
T11 chain: KDLGDRQGTFTK

[12] = target: T12, Lys(Dnp)-DQGDR-HAEGT-Lys(Abz)amide
T12 chain: KDQGDRHAEGTK

[13] = target: T13, DVKPGQPLEDDDDK-[Arg34]GLP-1(9-37)
T13 chain: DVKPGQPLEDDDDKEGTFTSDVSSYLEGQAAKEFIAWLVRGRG

[14] = target: T14, Lys(Dnp)-IDEGDR-HAEGT-Lys(Abz)amide
T14 chain: KIDEGDRHAEGTK

[15] = target: T15, Lys(Dnp)-AEGDR-HAEGT-Lys(Abz)amide
T15 chain: XAEGDRHAEGTX

[16] = target: T16, Lys(Dnp)-ADEGDR-HAEGT-Lys(Abz)amide
T16 chain: KADEGDRHAEGTK

[17] = target: T17, Lys(Dnp)-DSGDR-QGTFT-Lys(Abz)amide
T17 chain: KDSGDRQGTFTK

[18] = target: T18, Lys(Dnp)-EEGDR-HAEGT-Lys(Abz)amide
T18 chain: KEEGDRHAEGTK

[19] = target: T19, DVKPGQELYDEGDR-[Arg34]GLP-1(9-37)
T19 chain: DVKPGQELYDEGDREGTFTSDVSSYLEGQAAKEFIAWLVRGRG

[20] = target: T20, Lys(Dnp)-TEGDR-HAEGT-Lys(Abz)amide
T20 chain: KTEGDRHAEGTK

[21] = target: T21, Lys(Dnp)-DQGDR-HGEGT-Lys(Abz)amide
T21 chain: KDQGDRHGEGTK

[22] = target: T22, DVKPGQPLADEGDR-[Arg34]GLP-1(9-37)
T22 chain: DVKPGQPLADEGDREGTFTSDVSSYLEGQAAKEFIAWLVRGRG

[23] = target: T23, Lys(Dnp)-DHGDR-HGEGT-Lys(Abz)amide
T23 chain: KDHGDRHGEGTK

[24] = target: T24, Lys(Dnp)-DDEGDR-HAEGT-Lys(Abz)amide
T24 chain: KDDEGDRHAEGTK

[25] = target: T25, Lys(Dnp)-DLGDR-HGEGT-Lys(Abz)amide
T25 chain: KDLGDRHGEGTK

[26] = target: T26, Lys(Dnp)-DFGDR-HGEGT-Lys(Abz)amide
T26 chain: KDFGDRHGEGTK

[27] = target: T27, Lys(Dnp)-DSGDR-HAEGT-Lys(Abz)amide
T27 chain: KDSGDRHAEGTK

[28] = target: T28, Lys(Dnp)-DSGDR-HGTFT-Lys(Abz)amide
T28 chain: KDSGDRHGTFTK

[29] = target: T29, DVKPGEPLYDDDDK-[Arg34]GLP-1(9-37)
T29 chain: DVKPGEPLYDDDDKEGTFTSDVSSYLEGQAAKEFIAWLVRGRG

[30] = target: T30, Lys(Dnp)-DWGDR-HGEGT-Lys(Abz)amide
T30 chain: KDWGDRHGEGTK

[31] = target: T31, Lys(Dnp)-FEGDR-HAEGT-Lys(Abz)amide
T31 chain: KFEGDRHAEGTK

[32] = target: T32, Lys(Dnp)-QEGDR-HAEGT-Lys(Abz)amide
T32 chain: KQEGDRHAEGTK

[33] = target: T33, Lys(Dnp)-ESGDR-HGEGT-Lys(Abz)amide
T33 chain: KESGDRHGEGTK

[34] = target: T34, Lys(Dnp)-DGGDR-EGTFT-Lys(Abz)amide
T34 chain: KDGGDREGTFTK

[35] = target: T35, Lys(Dnp)-VIGDRHAEGT-Lys(Abz)amide
T35 chain: KVIGDRHAEGTK

[36] = target: T36, Lys(Dnp)-HDEGDR-HAEGT-Lys(Abz)amide
T36 chain: KHDEGDRHAEGTK

[37] = target: T37, DVKPGQPLYDDDDK-[Arg34]GLP-1(9-37)
T37 chain: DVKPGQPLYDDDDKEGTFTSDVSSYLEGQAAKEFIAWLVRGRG

[38] = target: T38, Lys(Dnp)-EDGDR-HGEGT-Lys(Abz)amide
T38 chain: KEDGDRHGEGTK

[39] = target: T39, Lys(Dnp)-ELGDR-HAEGT-Lys(Abz)amide
T39 chain: KELGDRHAEGTK

[40] = target: T40, Lys(Dnp)-IYGDRHAEGT-Lys(Abz)amide
T40 chain: KIYGDRHAEGTK

[41] = target: T41, Lys(Dnp)-DAGDR-HAEGT-Lys(Abz)amide
T41 chain: KDAGDRHAEGTK

B1: bovine Enterokinase light chain variant (C112A, L134K, I135K) (protein)
chain: IVGGSDSREGAWPWVVALYFDDQQVCGASLVSRDWLVSAAHCVYGRNMEPSKWKAVLGLHMASNLTSPQIETRLIDQIVINPHYNKRRKNNDIAMMHLEMKVNYTDYIQPIALPEENQVFPPGRICSIAGWGAKKYQGSTADVLQEADVPLLSNEKCQQQMPEYNITENMVCAGYEAGGVDSCQGDSGGPLMCQENNRWLLAGVTSFGYQCALPNRPGVYARVPRFTEWIQSFLH
[1]
  Activity (%): 243%
[2]
  Activity (%): 545%
[3]
  Activity (%): 168%
[4]
  Activity (%): 1100% and 942%
[5]
  Activity (%): 159%
[6]
  Activity (%): 410%
[7]
  Activity (%): 373%
[8]
  Activity (%): 402%
[9]
  Activity (%): 282%
[10]
  Activity (%): 434%
[11]
  Activity (%): 222%
[12]
  Activity (%): 770%
[13]
  Activity (%): 100%
[14]
  Activity (%): 283%
[15]
  Activity (%): 382%
[16]
  Activity (%): 100%
[17]
  Activity (%): 125%
[18]
  Activity (%): 988%
[19]
  Activity (%): 1040%
[20]
  Activity (%): 393%
[21]
  Activity (%): 467%
[22]
  Activity (%): 476%
[23]
  Activity (%): 526%
[24]
  Activity (%): 113%
[25]
  Activity (%): 438%
[26]
  Activity (%): 253%
[27]
  Activity (%): 504% and 380%
[28]
  Activity (%): 172%
[29]
  Activity (%): 162%
[30]
  Activity (%): 338%
[31]
  Activity (%): 397%
[32]
  Activity (%): 551%
[33]
  Activity (%): 221%
[34]
  Activity (%): 322%
[35]
  Activity (%): 68%
[36]
  Activity (%): 204%
[37]
  Activity (%): 136%
[38]
  Activity (%): 462%
[39]
  Activity (%): 659%
[40]
  Activity (%): 117%
[41]
  Activity (%): 496%
